According to patent US20110091994A1, “Methods for Screening Compounds for Treating and/or Preventing an Hepatitis C Virus Infection” (priority 2008, published 2011):
Where two headings read alike, the source gives them in different places.

How the values were obtained:
[1] = target: T1, HCV ORFs (Gal4-DB fusions) (Hepatitis C virus genotype 1b, UniProt Q9WMX2); type: binding, HCV genotype 1b, isolate con1; conditions: human protein as prey
T1 construct: expressed in transfected cells; host or cells: Saccharomyces cerevisiae MAV203 (IMAP1) / AH109 (IMAP2)

[2] = target: T2, HCV proteins (Hepatitis C virus genotype 1b, UniProt Q9WMX2); experiment: Validation by Y2H pairwise matrices; type: binding;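 further: yeast two-hybrid pairwise tests of interactions first found in Y2H screens of HCV bait proteins against human cDNA libraries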
T2 construct: expressed in transfected cells

[3] = test system: HCV ORFs (Gal4-DB fusions); type: binding, HCV genotype 1b, isolate con1; conditions: human protein listed by gene symbol; the value names the HCV protein it interacts with
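Wherever IMAP Y2H IMAP1 (number of IST) is given: yeast two-hybrid screens using HCV genotype 1b proteins fused to Gal4-DB as baits against prey cDNA libraries from human spleen and foetal brain, IMAP1 via transformation and IMAP2 via mating.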
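Wherever IMAP Y2H IMAP2 (number of IST) is given: yeast two-hybrid screens using HCV genotype 1b proteins fused to Gal4-DB as baits against prey cDNA libraries from human spleen and foetal brain, IMAP1 via transformation and IMAP2 via mating.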
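Wherever Interaction with viral protein is given: yeast two-hybrid screens using HCV genotype 1b proteins fused to Gal4-DB as baits against prey cDNA libraries from human spleen and foetal brain, IMAP1 via transformation and IMAP2 via mating.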

B1: USP19 (protein, UniProt O94966 1-1318, looked up)
Ubiquitin carboxyl-terminal …: MSGGASATGPRRGPPGLEDTTSKKKQKDRANQESKDGDPRKETGSRYVAQAGLEPLASGDPSASASHAAGITGSRHRTRLFFPSSSGSASTPQEEQTKEGACEDPHDLLATPTPELLLDWRQSAEEVIVKLRVGVGPLQLEDVDAAFTDTDCVVRFAGGQQWGGVFYAEIKSSCAKVQTRKGSLLHLTLPKKVPMLTWPSLLVEADEQLCIPPLNSQTCLLGSEENLAPLAGEKAVPPGNDPVSPAMVRSRNPGKDDCAKEEMAVAADAATLVDEPESMVNLAFVKNDSYEKGPDSVVVHVYVKEICRDTSRVLFREQDFTLIFQTRDGNFLRLHPGCGPHTTFRWQVKLRNLIEPEQCTFCFTASRIDICLRKRQSQRWGGLEAPAARVGGAKVAVPTGPTPLDSTPPGGAPHPLTGQEEARAVEKDKSKARSEDTGLDSVATRTPMEHVTPKPETHLASPKPTCMVPPMPHSPVSGDSVEEEEEEEKKVCLPGFTGLVNLGNTCFMNSVIQSLSNTRELRDFFHDRSFEAEINYNNPLGTGGRLAIGFAVLLRALWKGTHHAFQPSKLKAIVASKASQFTGYAQHDAQEFMAFLLDGLHEDLNRIQNKPYTETVDSDGRPDEVVAEEAWQRHKMRNDSFIVDLFQGQYKSKLVCPVCAKVSITFDPFLYLPVPLPQKQKVLPVFYFAREPHSKPIKFLVSVSKENSTASEVLDSLSQSVHVKPENLRLAEVIKNRFHRVFLPSHSLDTVSPSDTLLCFELLSSELAKERVVVLEVQQRPQVPSVPISKCAACQRKQQSEDEKLKRCTRCYRVGYCNQLCQKTHWPDHKGLCRPENIGYPFLVSVPASRLTYARLAQLLEGYARYSVSVFQPPFQPGRMALESQSPGCTTLLSTGSLEAGDSERDPIQPPELQLVTPMAEGDTGLPRVWAAPDRGPVPSTSGISSEMLASGPIEVGSLPAGERVSRPEAAVPGYQHPSEAMNAHTPQFFIYKIDSSNREQRLEDKGDTPLELGDDCSLALVWRNNERLQEFVLVASKELECAEDPGSAGEAARAGHFTLDQCLNLFTRPEVLAPEEAWYCPQCKQHREASKQLLLWRLPNVLIVQLKRFSFRSFIWRDKINDLVEFPVRNLDLSKFCIGQKEEQLPSYDLYAVINHYGGMIGGHYTACARLPNDRSSQRSDVGWRLFDDSTVTTVDESQVVTRYAYVLFYRRRNSPVERPPRAGHSEHHPDLGPAAEAAASQASRIWQELEAEEEPVPEGSGPLGPWGPQDWVGPLPRGPTTPDEGCLRYFVLGTVAALVALVLNVFYPLVSQSRWR
In the case of B1, the “IMAP Y2H IMAP1 (number of IST)” value ([1]; HCV protein NS5A as bait) is reported as 3 and the Y2H matrices ([2]; interaction with HCV protein NS5A) is reported as “+”.

B2: FXYD6 (protein, UniProt Q9H0Q3 19-95, looked up)
FXYD domain-containing ion …: SAAEKEKEMDPFHYDYQTLRIGGLVFAVVLFSVGILLILSRRCKCSFNQKPRAPGDEEAQVENLITANATEPQKAEN
With B2 the “IMAP Y2H IMAP1 (number of IST)” value ([1]; HCV protein p7 as bait) was 1 and the Y2H matrices ([2]; interaction with HCV protein p7) was “+”.

B3: TP53BP2 (protein, UniProt Q13625 1-1128, looked up)
Apoptosis-stimulating of p53 …: MMPMFLTVYLSNNEQHFTEVPVTPETICRDVVDLCKEPGESDCHLAEVWCGSERPVADNERMFDVLQRFGSQRNEVRFFLRHERPPGRDIVSGPRSQDPSLKRNGVKVPGEYRRKENGVNSPRMDLTLAELQEMASRQQQQIEAQQQLLATKEQRLKFLKQQDQRQQQQVAEQEKLKRLKEIAENQEAKLKKVRALKGHVEQKRLSNGKLVEEIEQMNNLFQQKQRELVLAVSKVEELTRQLEMLKNGRIDSHHDNQSAVAELDRLYKELQLRNKLNQEQNAKLQQQRECLNKRNSEVAVMDKRVNELRDRLWKKKAALQQKENLPVSSDGNLPQQAASAPSRVAAVGPYIQSSTMPRMPSRPELLVKPALPDGSLVIQASEGPMKIQTLPNMRSGAASQTKGSKIHPVGPDWSPSNADLFPSQGSASVPQSTGNALDQVDDGEVPLREKEKKVRPFSMFDAVDQSNAPPSFGTLRKNQSSEDILRDAQVANKNVAKVPPPVPTKPKQINLPYFGQTNQPPSDIKPDGSSQQLSTVVPSMGTKPKPAGQQPRVLLSPSIPSVGQDQTLSPGSKQESPPAAAVRPFTPQPSKDTLLPPFRKPQTVAASSIYSMYTQQQAPGKNFQQAVQSALTKTHTRGPHFSSVYGKPVIAAAQNQQQHPENIYSNSQGKPGSPEPETEPVSSVQENHENERIPRPLSPTKLLPFLSNPYRNQSDADLEALRKKLSNAPRPLKKRSSITEPEGPNGPNIQKLLYQRTTIAAMETISVPSYPSKSASVTASSESPVEIQNPYLHVEPEKEVVSLVPESLSPEDVGNASTENSDMPAPSPGLDYEPEGVPDNSPNLQNNPEEPNPEAPHVLDVYLEEYPPYPPPPYPSGEPEGPGEDSVSMRPPEITGQVSLPPGKRTNLRKTGSERIAHGMRVKFNPLALLLDSSLEGEFDLVQRIIYEVDDPSLPNDEGITALHNAVCAGHTEIVKFLVQFGVNVNAADSDGWTPLHCAASCNNVQVCKFLVESGAAVFAMTYSDMQTAADKCEEMEEGYTQCSQFLYGVQEKMGIMNKGVIYALWDYEPQNDDELPMKEGDCMTIIHREDEDEIEWWWARLNDKEGYVPRNLLGLYPRIKPRQRSLA
With B3 the “IMAP Y2H IMAP2 (number of IST)” value ([1]; HCV protein NS5A as bait) was 2 and the “Interaction with viral protein” value [3] was “NS5A”.

B4: SEPT10 (protein, UniProt Q9P0V9 1-454, looked up)
Septin-10: MASSEVARHLLFQSHMATKTTCMSSQGSDDEQIKRENIRSLTMSGHVGFESLPDQLVNRSIQQGFCFNILCVGETGIGKSTLIDTLFNTNFEDYESSHFCPNVKLKAQTYELQESNVQLKLTIVNTVGFGDQINKEESYQPIVDYIDAQFEAYLQEELKIKRSLFTYHDSRIHVCLYFISPTGHSLKTLDLLTMKNLDSKVNIIPVIAKADTVSKTELQKFKIKLMSELVSNGVQIYQFPTDDDTIAKVNAAMNGQLPFAVVGSMDEVKVGNKMVKARQYPWGVVQVENENHCDFVKLREMLICTNMEDLREQTHTRHYELYRRCKLEEMGFTDVGPENKPVSVQETYEAKRHEFHGERQRKEEEMKQMFVQRVKEKEAILKEAERELQAKFEHLKRLHQEERMKLEEKRRLLEEEIIAFSKKKATSEIFHSQSFLATGSNLRKDKDRKNSNFL
In the case of B4, the “IMAP Y2H IMAP1 (number of IST)” value ([1]; HCV protein NS3 as bait) is reported as 1 and the Y2H matrices ([2]; validation of interaction with HCV protein NS3) is reported as “+”.

B5: CEP68 (protein, UniProt Q76N32 1-757, looked up)
Centrosomal protein of 68 kDa: MALGEEKAEAEASEDTKAQSYGRGSCRERELDIPGPMSGEQPPRLEAEGGLISPVWGAEGIPAPTCWIGTDPGGPSRAHQPQASDANREPVAERSEPALSGLPPATMGSGDLLLSGESQVEKTKLSSSEEFPQTLSLPRTTTICSGHDADTEDDPSLADLPQALDLSQQPHSSGLSCLSQWKSVLSPGSAAQPSSCSISASSTGSSLQGHQERAEPRGGSLAKVSSSLEPVVPQEPSSVVGLGPRPQWSPQPVFSGGDASGLGRRRLSFQAEYWACVLPDSLPPSPDRHSPLWNPNKEYEDLLDYTYPLRPGPQLPKHLDSRVPADPVLQDSGVDLDSFSVSPASTLKSPTNVSPNCPPAEATALPFSGPREPSLKQWPSRVPQKQGGMGLASWSQLASTPRAPGSRDARWERREPALRGAKDRLTIGKHLDMGSPQLRTRDRGWPSPRPEREKRTSQSARRPTCTESRWKSEEEVESDDEYLALPARLTQVSSLVSYLGSISTLVTLPTGDIKGQSPLEVSDSDGPASFPSSSSQSQLPPGAALQGSGDPEGQNPCFLRSFVRAHDSAGEGSLGSSQALGVSSGLLKTRPSLPARLDRWPFSDPDVEGQLPRKGGEQGKESLVQCVKTFCCQLEELICWLYNVADVTDHGTAARSNLTSLKSSLQLYRQFKKDIDEHQSLTESVLQKGEILLQCLLENTPVLEDVLGRIAKQSGELESHADRLYDSILASLDMLAGCTLIPDKKPMAAMEHPCEGV
B5 was tested, and the “IMAP Y2H IMAP1 (number of IST)” value ([1]; HCV protein NS5B as bait) was 1 and the Y2H matrices ([2]; interaction with HCV protein NS5B) was “+”.

B6: C16orf7 (protein, UniProt Q9Y2B5 1-631, looked up)
VPS9 domain-containing …: MAAAAGDGTVKPLQSAMKLANGAIELDTGNRPREAYTEYLRSIHYISQVLLEEVETTKEAGETVPPDTSKMLKLAQQCLERAQSTAAKLGKTRLKPTMPAAAPIPQPAGRHRRVYSDEGGKLSPFLPPEIFQKLQGAESQSCKKELTPLEEASLQNQKLKAAYEARMARLDPSQAMQKTSLTLSLQRQMMENLVIAKAREETLQRKMEERRLRLQEAANRRFCSQVALTPEEREQRALYAAILEYEQDHDWPKHWKAKLKRNPGDLSLVTSLVSHLLSLPDHPIAQLLRRLQCSVYSALYPAVSRAAAPAPGCCPPTPNPGSRRLRPSQSLHCMLSPPEPSAAPRPQDSPPTPPLQPGPVGSPSPLGDTASGLPDKDSSFEDLEQFLGTSERQGRGRGVQPEPQLQQLKTAVEEIHNAVDRLLSLTLLAFEGLNTAASKDRCLACIEEPFFSPLWPLLLALYRSVHRAREAALSRSMELYRNAPPTAIGIPTKLLPQNPEAKGATGYPYCAAAQELGLLVLESCPQKKLECIVRTLRIICVCAEDYCPTPEATPQAGPPPIAAAAIGADDLLPILSFVVLRSGLPQLVSECAALEEFIHEGYLIGEEGYCLTSLQSALSYVELLPRGGLAK
B6 was tested, and the “IMAP Y2H IMAP2 (number of IST)” value ([1]; HCV protein NS3 as bait) was 1 and the “Interaction with viral protein” value [3] was “NS3”.

B7: SMEK2 (protein, UniProt Q5MIZ7 1-849, looked up)
Serine/threonine-protein …: MSDTRRRVKVYTLNEDRQWDDRGTGHVSSTYVEELKGMSLLVRAESDGSLLLESKINPNTAYQKQQDTLIVWSEAENYDLALSFQEKAGCDEIWEKICQVQGKDPSVEVTQDLIDESEEERFEEMPETSHLIDLPTCELNKLEEIADLVTSVLSSPIRREKLALALENEGYIKKLLQLFQACENLENTEGLHHLYEIIRGILFLNKATLFEVMFSDECIMDVVGCLEYDPALAQPKRHREFLTKTAKFKEVIPITDSELRQKIHQTYRVQYIQDIILPTPSVFEENFLSTLTSFIFFNKVEIVSMLQEDEKFLSEVFAQLTDEATDDDKRRELVNFFKEFCAFSQTLQPQNRDAFFKTLAKLGILPALEIVMGMDDLQVRSAATDIFSYLVEFSPSMVREFVMQEAQQSDDDILLINVVIEQMICDTDPELGGAVQLMGLLRTLIDPENMLATTNKTEKSEFLNFFYNHCMHVLTAPLLTNTSEDKCEKDFFLKHYRYSWSFICTPSHSHSHSTPSSSISQDNIVGSNKNNTICPDNYQTAQLLALILELLTFCVEHHTYHIKNYIMNKDLLRRVLVLMNSKHTFLALCALRFMRRIIGLKDEFYNRYITKGNLFEPVINALLDNGTRYNLLNSAVIELFEFIRVEDIKSLTAHIVENFYKALESIEYVQTFKGLKTKYEQEKDRQNQKLNSVPSILRSNRFRRDAKALEEDEEMWFNEDEEEEGKAVVAPVEKPKPEDDFPDNYEKFMETKKAKESEDKENLPKRTSPGGFKFTFSHSASAANGTNSKSVVAQIPPATSNGSSSKTTNLPTSVTATKGSLVGLVDYPDDEEEDEEEESSPRKRPRLGS
With B7 the “IMAP Y2H IMAP1 (number of IST)” value ([1]; HCV protein E2 as bait) was 1 and the Y2H matrices ([2]; validation of interaction with HCV protein E2) was “+”.

B8: BCL2A1 (protein, UniProt Q16548 1-175, looked up)
Bcl-2-related protein A1: MTDCEFGYIYRLAQDYLQCVLQIPQPGSGPSKTSRVLQNVAFSVQKEVEKNLKSCLDNVNVVSVDTARTLFNQVMEKEFEDGIINWGRIVTIFAFEGILIKKLLRQQIAPDVDTYKEISYFVAEFIMNNTGEWIRQNGGWENGFVKKFEPKSGWMTFLEVTGKICEMLSLLKQYC
With B8 the “IMAP Y2H IMAP2 (number of IST)” value ([1]; HCV protein NS3 as bait) was 1 and the “Interaction with viral protein” value [3] was “NS3”.
